The values below come from PMC7714071, “Interaction of amyloid beta with humanin and acetylcholinesterase is modulated by ATP” (FEBS Open Bio, 2020).

The test system of data set [1] is Aβ42. Particulars: cited from earlier work. An excerpt:
Almost all types of cells produce amyloid beta (Aβ), a peptide well recognized for its role in the development and progression of different stages of Alzheimer's disease (AD). The Aβ peptide is ~ 4 kDa and derived from the sequential processing of the higher molecular weight amyloid precursor protein by two membrane‐bound endoproteases, β‐ and γ‐secretase. Different C‐terminal Aβ heterogeneity results from processing by γ‐secretase, where Aβ40 represents the most abundant isoform (~ 90%) as compared to Aβ42 (~ 10%). Self‐assembled Aβ40/42 peptides into amyloid fib ... || Amino acid residues involved in direct interactions between HN and Aβ40 were identified previously by molecular modeling. The specific epitopes at the binding interface between HN and Aβ40 were identified, by proteolytic epitope excision and extraction in addition to affinity–mass spectrometric data analysis, to be HN (5–15) and Aβ (17–28). […] Inhibiting the 17–28 region of Aβ reduced aggregation of the neurotoxic amyloid fibrils and related cytotoxicity in SH‐SY5Y, a human neuroblastoma cell ... || Acetylcholinesterase (AChE) is an enzyme known for its role in terminating acetylcholine‐mediated neurotransmission at the synaptic cleft. The majority of the cortical AChE in the Alzheimer's brain is mainly associated with the amyloid core of senile plaques. […]

For data set [2], the system named is Aβ42. The following applies: HN and AChE compared; cited from earlier work. An excerpt:
Humanin has been previously reported to bind amino acid residues 17–28 of Aβ (Fig. 1). AChE is also known to bind Aβ (1–16) and the Aβ (12–28) region (Fig. 1). Since the binding sites of AChE and HN on Aβ are overlapping, we previously investigated whether HN and AChE can simultaneously bind Aβ [79].

The subject of data set [3] is Aβ in H1299 cell-conditioned media. The data set is described as follows: ELISA, oligomer versus total Aβ in H1299 cell-conditioned media. It is filed as cell-based, human. The following applies: AChE-immunodepleted H1299 media; Fig. 8B. The method, then:
(§1) Aβ ELISAs were carried out according to previous protocols for determining the oligomeric and monomeric concentrations of Aβ and as we recently reported. Briefly, total Aβ (monomers + oligomers) was measured by two‐site binding ELISAs using the capture 6E10 monoclonal antibody and 4G8‐conjugated biotin as the detection antibody, which recognizes a distinct epitope, then quantitated using streptavidin‐HRP.
(§2) Using the same samples, oligomerized Aβ was measured by a single‐site ELISA in which antibodies targeting the same primary sequence epitope were used for both capture (4G8) and detection (4G8‐biotin). Only oligomers are detected with this approach since the 4G8‐biotin antibody cannot bind to the captured monomer because the epitope is blocked by the 4G8 capture antibody. […]
(§3) Conditioned media were immunodepleted (ID) according to the methods previously described and our recently published report. […] The ID media were then carefully removed and analyzed for the presence of the target protein or peptide by ELISA. The same amount of protein (3 µL of 600 µg·mL^−1 total protein) of each sample was analyzed in the experiments. […]
(§4) Both epitopes recognized by the 6E10 and 4G8 antibodies have been previously shown to be exposed in Aβ aggregates. […] Fold change relative to controls using anti‐6E10 or anti‐4G8 antibodies incubated with 300 μL of the medium not incubated with cells was calculated. […]
(In general: ELISA stands for enzyme-linked immunosorbent assay.)

The subject of a further data set is Aβ cytotoxicity. Particulars: versus Aβ aggregates alone; cited from earlier work. An excerpt:
Almost all types of cells produce amyloid beta (Aβ), a peptide well recognized for its role in the development and progression of different stages of Alzheimer's disease (AD). The Aβ peptide is ~ 4 kDa and derived from the sequential processing of the higher molecular weight amyloid precursor protein by two membrane‐bound endoproteases, β‐ and γ‐secretase. Different C‐terminal Aβ heterogeneity results from processing by γ‐secretase, where Aβ40 represents the most abundant isoform (~ 90%) as compared to Aβ42 (~ 10%). Self‐assembled Aβ40/42 peptides into amyloid fib ... || Soluble oligomers of proteins implicated in different diseases are primarily thought to be the main toxic form as opposed to the larger fibrillar assemblies. Aβ regions containing Tyr and Ser (H6DSGY10 and G25SNKG29) (Fig. 1) along with post‐translational modifications of these regions, have been implicated in misfolding, oligomerization, or fibril formation of Aβ [5, 10, 11, 16, 41]. […] Aβ proteins a ... || Acetylcholinesterase (AChE) is an enzyme known for its role in terminating acetylcholine‐mediated neurotransmission at the synaptic cleft. The majority of the cortical AChE in the Alzheimer's brain is mainly associated with the amyloid core of senile plaques. […]

Data set [4] has as its system Aβ in A549 cell-conditioned media. Description: ELISA, oligomer versus total Aβ in A549 cell-conditioned media. The format is cell-based, human. The following applies: Fig. 8A. Here is the method:
as §1, §2, §3, §4

B1: acetylcholinesterase (protein)
chain: EGREDAELLVTVRGGRLRGIRLKTPGGPVSAFLGIPFAEPPMGPRRFLPPEPKQPWSGVVDATTFQSVCYQYVDTLYPGFEGTEMWNPNRELSEDCLYLNVWTPYPRPTSPTPVLVWIYGGGFYSGASSLDVYDGRFLVQAERTVLVSMNYRVGAFGFLALPGSREAPGNVGLLDQRLALQWVQENVAAFGGDPTSVTLFGESAGAASVGMHLLSPPSRGLFHRAVLQSGAPNGPWATVGMGEARRRATQLAHLVGCPPGGTGGNDTELVACLRTRPAQVLVNHEWHVLPQESVFRFSFVPVVDGDFLSDTPEALINAGDFHGLQVLVGVVKDEGSYFLVYGAPGFSKDNESLISRAEFLAGVRVGVPQVSDLAAEAVVLHYTDWLHPEDPARLREALSDVVGDHNVVCPVAQLAGRLAAQGARVYAYVFEHRASTLSWPLWMGVPHGYEIEFIFGIPLDPSRNYTAEEKIFAQRLMRYWANFARTGDPNEPRDPKAPQWPPYTAGAQQYVSLDLRPLEVRRGLRAQACAFWNRFLPKLLSATDTLDEAERQWKAEFHRWSSYMVHWKNQFDHYSKQDRCSDL
For the molecule B1, the “effect on Aβ42 oligomeric formation” value in the data set on Aβ42 [1] is “increases Aβ42 oligomeric formation”. Further, the “affinity for Aβ42” value in the data set with Aβ42 [2] was “comparable affinities”. For the same molecule, the “effect of AChE ID on oligomer versus total Aβ” value in data set [3] is listed as “No change”. In addition, the “toxicity of AChE-amyloid complexes” value in the data set with Aβ cytotoxicity is “Higher toxicity”. The “oligomer, % of total Aβ remaining after AChE ID” value in data set [4] (AChE-immunodepleted A549 media (non-depleted ~ 63%)) was ~ 47%. In addition, the “total Aβ remaining after AChE ID” value in data set [4] (AChE-immunodepleted A549 media) is on record as ~ 57%.
